# According to the supplement of paper PMC7877785:
# ± gives the uncertainty stated by the source.
# Test: self-splicing fitness, log relative to wild type (ln ratio); higher = more splicing; Tetrahymena group I intron in knt gene, E. coli kanamycin selection, DiMSum; sequences stand for … in CUCUCU…GGAGGGAAAAGUUAUCAGGCAUGCACCUGGUAGCUAGUCUUUAAACCAAUAGAUUGCAUCGGUUUAAAAGGCAAGACCGUCAAAUUGCGGGAAAGGGGUCAACAGCCGUUCAGUACCAAGUCUCAGGGGAAACUUUGAGAUGGCCUUGCAAAGGGUAUGGUAAUAAGCUGACGGACAUGGUCCUAACCACGCAGCCAAGUCCUAAGUCAACAGAUCUUCUGUUGAUAUGGAUGCAGUUCACAGACUAAAUGUCGGUCGGGGAAGAUGUAUUCUUCUCAUAAGAUAUAGUCGGACCUCUCCUUAAUGGGAGCUAGCGGAUGAAGUGAUGCAACACUGGAGCCGCUGGGAACUAAUUUGUAUGCGAAAGUAUAUUGAUUAGUUUUGGAGUACUCGUGGUCG
# In short: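 A randomised library covering all eight P1ex-region intron nucleotides was built with the intron in the knt kanamycin-resistance gene on pET-22b(+) and held in E. coli BL21(DE3). Cells were grown overnight at 37°C or 30°C on LB agar, with or without 25 μg/mL kanamycin, plus 100 μg/mL carbenicillin, 50 μM IPTG and 0.2% rhamnose, and pooled colonies were amplicon-sequenced on an Illumina HiSeq 2500. DiMSum fitness is the error-weighted combination of wild-type-normalised replicate fold changes, kanamycin versus none.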
Sequence,self-splicing fitness (ln) (30 °C),self-splicing fitness (ln) (37 °C)
CGCUAGCAAUAUUACGAAAG,-1.17 ± 0.091,-0.395 ± 0.1
GACUAGCAAUAUUACGCAUC,-3.16 ± 0.17,-2.95 ± 0.22
ACAUAGCAAUAUUACGCUUC,-3 ± 0.29,-1.82 ± 0.28
AGAAAGCAAUAUUACGUAAA,-2.15 ± 0.12,-1.88 ± 0.14
AACUAGCAAUAUUACGCGCG,-0.639 ± 0.082,-0.378 ± 0.12
AAGAAGCAAUAUUACGGAGG,-3.92 ± 0.29,-2.96 ± 0.32
AAGAAGCAAUAUUACGGUAA,-2.01 ± 0.19,-0.929 ± 0.16
CGGUAGCAAUAUUACGGAGG,-2.24 ± 0.087,-0.94 ± 0.09
AUCAAGCAAUAUUACGGAGA,-2.57 ± 0.16,-2.81 ± 0.24
UAAAAGCAAUAUUACGUAUG,-1.07 ± 0.078,-0.324 ± 0.095
UGUAAGCAAUAUUACGAACU,-0.349 ± 0.12,-0.682 ± 0.12
UCAAAGCAAUAUUACGGCCU,,-1.28 ± 0.17
UGGCAGCAAUAUUACGGGCG,0.162 ± 0.071,0.586 ± 0.1
CCUGAGCAAUAUUACGAGAA,-3.46 ± 0.4,-1.79 ± 0.29
CAUGAGCAAUAUUACGCUUU,,-3.02 ± 0.24
ACAGAGCAAUAUUACGCGUC,,-2.07 ± 0.29
CUUAAGCAAUAUUACGUGUC,-4.45 ± 0.21,-1.8 ± 0.15
CAAUAGCAAUAUUACGGAUG,-1.51 ± 0.08,-1.12 ± 0.088
UUACAGCAAUAUUACGGUUU,-0.925 ± 0.046,0.136 ± 0.066
UCGCAGCAAUAUUACGAAUU,-4.07 ± 0.34,-2.75 ± 0.17

Sequence,self-splicing fitness (ln) (30 °C),self-splicing fitness (ln) (37 °C)
GCAGAGCAAUAUUACGACAA,-1.8 ± 0.46,-0.677 ± 0.43
GUCGAGCAAUAUUACGUUCG,-3.55 ± 0.3,-1.86 ± 0.25
AGUGAGCAAUAUUACGGUCU,-0.639 ± 0.11,-0.463 ± 0.12
AUACAGCAAUAUUACGUUGA,-2.53 ± 0.095,-1.44 ± 0.088
CCUCAGCAAUAUUACGUGAG,-0.99 ± 0.057,-0.881 ± 0.071
UAGCAGCAAUAUUACGCACC,-0.936 ± 0.16,-0.423 ± 0.16
CCCUAGCAAUAUUACGAACU,-2.89 ± 0.18,-3.56 ± 0.39
CCUGAGCAAUAUUACGUACC,-0.796 ± 0.25,-2.27 ± 0.37
ACAGAGCAAUAUUACGCAUC,-4.07 ± 0.25,-2.59 ± 0.23
UGGGAGCAAUAUUACGGUUU,-3.58 ± 0.16,-3.35 ± 0.23
GUCUAGCAAUAUUACGGUAG,,-1.54 ± 0.26
GGUUAGCAAUAUUACGAAUA,-1.94 ± 0.19,-1.85 ± 0.26
CGAGAGCAAUAUUACGUAUC,-3.63 ± 0.25,-1.87 ± 0.38
CGAAAGCAAUAUUACGACCG,-0.423 ± 0.12,-0.183 ± 0.15
AUCGAGCAAUAUUACGUAAU,-1.91 ± 0.12,-1.25 ± 0.13
UGGUAGCAAUAUUACGUUCA,-0.227 ± 0.11,-0.354 ± 0.14
GGCGAGCAAUAUUACGAAAA,,-2.97 ± 0.47
ACGGAGCAAUAUUACGAUUU,-2.33 ± 0.12,-1.65 ± 0.15
UACCAGCAAUAUUACGGUAU,-3.15 ± 0.16,-2.35 ± 0.18
